# Test results as given in paper PMC11286949.
# Columns and labels:
# [1] = molecular target: T1, Arc1p dNdM1 (Saccharomyces cerevisiae) (UniProt P46672); assay: ITC; settings: FP: 25 mM Tris-HCl pH 7.5, 2 mM MgCl2, 50 mM NaCl (Trbp111) or 150 mM NaCl (Arc1p), room temperature, ITC: 25 mM Tris-HCl pH 7.4, 150 mM NaCl
# T1 sequence (P46672 whole entry, looked up): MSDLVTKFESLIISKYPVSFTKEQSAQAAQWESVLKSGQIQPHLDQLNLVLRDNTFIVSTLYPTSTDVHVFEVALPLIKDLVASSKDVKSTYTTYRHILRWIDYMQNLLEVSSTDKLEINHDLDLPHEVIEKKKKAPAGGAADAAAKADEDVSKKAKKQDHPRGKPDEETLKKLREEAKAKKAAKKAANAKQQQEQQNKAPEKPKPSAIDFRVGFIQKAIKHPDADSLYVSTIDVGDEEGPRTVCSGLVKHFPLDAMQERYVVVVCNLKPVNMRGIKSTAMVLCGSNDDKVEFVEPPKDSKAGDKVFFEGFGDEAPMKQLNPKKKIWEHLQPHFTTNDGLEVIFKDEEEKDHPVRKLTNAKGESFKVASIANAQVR
# [2] = molecular target: Aquifex aeolicus Trbp111 (tRNA-binding protein, 111 amino acids) (Aquifex aeolicus); assay: crystal structure; unbound (apo) Trbp111, 2.3 Å, space group C222_(1); crystals grew from a mixture with tRNA^Ile, 0.2 M lithium sulfate, 0.1 M Tris-HCl pH 8.5, 25% PEG 3350
# [3] = molecular target: T2, Arc1p dN del1-131 (Saccharomyces cerevisiae) (UniProt P46672); assay: ITC; settings: FP: 25 mM Tris-HCl pH 7.5, 2 mM MgCl2, 50 mM NaCl (Trbp111) or 150 mM NaCl (Arc1p), room temperature, ITC: 25 mM Tris-HCl pH 7.4, 150 mM NaCl
# T2 sequence: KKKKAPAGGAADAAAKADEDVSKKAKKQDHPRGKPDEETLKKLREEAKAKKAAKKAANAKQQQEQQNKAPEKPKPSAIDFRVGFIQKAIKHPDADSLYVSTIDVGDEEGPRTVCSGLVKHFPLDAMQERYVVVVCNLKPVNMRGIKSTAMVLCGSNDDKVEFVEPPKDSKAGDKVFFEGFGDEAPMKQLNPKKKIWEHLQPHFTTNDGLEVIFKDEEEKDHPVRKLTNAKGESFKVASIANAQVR
substance,measurement,setting,value
AGGCUUGUAGCUCAGGUGGUUAGAGCGCACCCCUGAUAAGGGUGAGGGCGGUGGUUCAAGUCCACUCAGGCCUACCA [tRNAIle WT],Kd,[1],2.55 µM
"Aquifex aeolicus Trbp111 (tRNA-binding protein, 111 amino acids) (natural protein)",stoichiometry N,[2],2
tRNAIle G18C/G19C,Kd,[3],3.33 µM
